Article PMC8948467

Columns and labels:
[1] = molecular target: IgA of the IgM/IgA-enriched immunoglobulin Pentaglobin; experiment: non-reducing SDS-PAGE with Western blot; Pentaglobin separated by non-reducing SDS-PAGE, transferred to nitrocellulose; J-chain, IgA and IgM detected with specific antibodies and fluorophore labeled secondary antibodies
[2] = molecular target: IgM of the IgM/IgA-enriched immunoglobulin Pentaglobin; experiment: as above

IgA of the IgM/IgA-enriched immunoglobulin Pentaglobin, sequence (P01876 whole entry): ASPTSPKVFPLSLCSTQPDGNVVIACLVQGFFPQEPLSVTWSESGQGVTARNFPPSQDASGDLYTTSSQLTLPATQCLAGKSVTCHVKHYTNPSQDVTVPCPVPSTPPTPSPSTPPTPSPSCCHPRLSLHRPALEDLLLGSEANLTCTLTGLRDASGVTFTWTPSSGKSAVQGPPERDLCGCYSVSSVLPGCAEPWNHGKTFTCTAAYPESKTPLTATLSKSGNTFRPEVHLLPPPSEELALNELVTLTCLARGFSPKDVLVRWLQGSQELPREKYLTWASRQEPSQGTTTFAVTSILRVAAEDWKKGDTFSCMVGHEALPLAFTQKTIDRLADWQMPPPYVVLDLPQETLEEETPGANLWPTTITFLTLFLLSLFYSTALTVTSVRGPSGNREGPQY
IgM of the IgM/IgA-enriched immunoglobulin Pentaglobin, sequence (P01871 whole entry): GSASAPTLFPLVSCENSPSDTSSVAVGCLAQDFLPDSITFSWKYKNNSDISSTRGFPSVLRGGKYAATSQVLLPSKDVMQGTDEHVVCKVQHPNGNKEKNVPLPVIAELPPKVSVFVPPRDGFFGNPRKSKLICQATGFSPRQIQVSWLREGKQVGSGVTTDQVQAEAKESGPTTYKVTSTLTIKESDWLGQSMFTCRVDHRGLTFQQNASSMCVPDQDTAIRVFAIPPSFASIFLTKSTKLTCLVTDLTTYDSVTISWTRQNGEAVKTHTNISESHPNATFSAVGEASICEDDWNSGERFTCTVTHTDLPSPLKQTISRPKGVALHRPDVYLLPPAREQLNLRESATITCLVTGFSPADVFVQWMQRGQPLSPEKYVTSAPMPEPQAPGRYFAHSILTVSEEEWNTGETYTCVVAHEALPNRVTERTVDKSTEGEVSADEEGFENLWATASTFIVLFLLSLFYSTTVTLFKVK

Substance	stoichiometry N [1]	stoichiometry N [2]
IgA of the IgM/IgA-enriched immunoglobulin Pentaglobin (natural protein)	2	
IgM of the IgM/IgA-enriched immunoglobulin Pentaglobin (natural protein)		5
